# Laboratory results from PMC7008241, “Radiolabeled Cationic Peptides for Targeted Imaging of Infection” (Contrast Media & Molecular Imaging, 2019).
# Where “and” joins values, the source holds several entries; their conditions need not be identical. Equal values may be shown once. Where a SMILES comes first, the peptide text is derived from it. [ ]: non-standard residue; d: D form. The star is where a group is joined. DOTA = O=C(O)CN1CCN(CC(=O)O)CCN(CC(=O)*)CCN(CC(=O)O)CC1; X1 = CC(=O)c1ccc(OCCC*)cc1B(O)O
# Columns and labels:
# [1] = test system: Staphylococcus aureus (SA) infected thigh muscle; assay: in vivo; parameters: species or system mice; conditions: mouse
# Description: (§1) All animal experiments were performed according to animal use protocols approved by the University of Alabama at Birmingham Institutional Animal Care and Use Committee (IACUC). Animals were housed under controlled conditions with a natural light-dark cycle. They were allowed to adapt to the housing environment for at least 48 h prior to study. Biodistribution and PET imaging studies with ^64Cu-HLys-DOTA and ^64Cu-AB1-HLys-DOTA were conducted in mice intramuscularly (IM) infected in the thigh muscle with SA and PBS as a control. Thirty-six male mice (25–30 g, 4–5 weeks old) infected with SA were used for animal studies. For each peptide, 4 mice were used for small animal PET imaging at 1, 4, and 24 h, and then sacrificed at 24 h for a post-PET biodistribution. Another set of 4 mice each was used for biodistribution studies at 1 and 4 h. A similar set of mice was used for blocking studies with ^64Cu-AB1-HLys-DOTA peptide. In order to check the specificity of ^64Cu-AB1-HLys-DOTA for Gram-positive bacteria, imaging and post-PET biodistribution studies were conducted in another set of mice (four) intramuscularly (IM) infected in the thigh muscle with PA and PBS.
# (§2) Mice for infection studies were anesthetized prior to the intramuscular infection of SA or PA. Animals were immobilized with isoflurane. Bacteria cells concentrated in sterile PBS were injected into the thigh muscle and the site of injection pinched to minimize bleeding. SA or PA suspension (50 μL, 2.6–2.8 × 10^7 CFU per mouse) was intramuscularly injected into the right thigh muscle, and sterile PBS (50 μL) was injected into the left thigh muscle as control. Mice were placed back into the cages and allowed to recover with frequent monitoring to identify any sign of extreme distress. The infection was allowed to develop for 3–5 days before intravenous injection of the radiolabeled probe. The muscles on the left and right thighs were harvested, homogenized, and plated on mannitol agar plates or cultured in LB broth to verify the presence of infection. In addition, [^18F]FDG imaging was also performed in infected animal models as described in the PET imaging section below to further confirm the existence of infection in the right thigh and the absence thereof in the left thigh.
# (§3) Small animal PET/CT imaging studies were conducted in SA-infected and PA-infected animal models. Each radiolabeled peptide, 3.3–3.7 MBq (90–100 μCi), was administrated via tail vein injection of prewarmed mice under anesthesia. The inflammatory response caused by the infection was confirmed by intravenous injection of [^18F]FDG, 3.7 MBq (100 μCi), into mice infected on the right thigh muscle with SA or PA and on the left with PBS as control. For this small animal PET imaging, 1 and 4 h post-injection static scans were collected. Following imaging studies, the mice were sacrificed for biodistribution. Mice were allowed to recover from anesthesia until the time of imaging. Mice were anesthetized with 2‐3% isoflurane/oxygen and imaged on the small animal PET/CT scanner. Static images were collected at 1, 4, and 24 h for 15, 20, and 30 min, respectively. PET images were coregistered with CT image for anatomical colocalization. Regions of interest (ROI) were manually drawn over organs of interest with CT anatomical guidelines, and the associated radioactivity was measured using Inveon Research Workstation software. Standard uptake values (SUV) were calculated as nCi/cc × animal weight/injected dose, and comparisons in pharmacokinetics of radiolabeled peptides were assessed.
# in vivo [2] = assay: in vivo; parameters: species or system mice; conditions: mouse, iv, total radioactivity
# Description: as §1, §2, §3
# in vivo [3] = assay: in vivo; parameters: species or system mice; conditions: mouse, iv, total radioactivity; remark: listed apart in the source
# Description: as §1, §2
# For biodistribution studies, 3.3–3.7 MBq (90–100 μCi) of ^64Cu-HLys-DOTA or ^64Cu-AB1-HLys-DOTA was injected into prewarmed tail vein of the animals under anesthesia. Animals were euthanized at 1 and 4 h after radiotracer administration (n = 4 for each tracer at each time point). At 24 h after small animal PET imaging, the mice were also euthanized for a post-PET biodistribution. In a similar set of experiment, excess of the unlabeled peptide, 150 nmol, was coinjected with the radiolabeled peptides per mouse. The organs of interest were collected, weighed, and measured for radioactivity content using a gamma counter. The data were background-corrected and decay-corrected. The biodistribution data were expressed as percentage of injected radioactive dose per gram of tissue (%ID/g) for selected organs as the mean value of four mice.
# [4] = test system: Pseudomonas aeruginosa (PA), ATCC 47085; assay: Bacterial cell uptake of 64Cu-labeled peptides in Pseudomonas aeruginosa; type: cell-based; conditions: PA in PBS pH 7.4, 37°C, gamma counter, triplicates, mean ± SD
# From the text: (§4) All solvents and reagents were obtained from Sigma-Aldrich Company unless otherwise specified. […] Diethylenetriaminepentaacetic acid (DTPA) was purchased from Sigma (St. Louis, MO). 1,4,7,10-Tetraazacyclododecane-1,4,7,10-tetraacetic acid mono-N-hydroxysuccinimide ester (DOTA-NHS-ester) was purchased from Macrocyclics (Dallas, Texas). C18 SepPak cartridges were obtained from Waters Corporation (Milford. MA). Radiometric instant thin-layer chromatography measurements were accomplished using a TLC scanner (Bioscan AR-2000 Scanner). Reverse-phase chromatography analysis was performed on a C18 column (PA) with an infinity diode-array UV detector (Agilent, Lake Forest, CA) and a PMT/NaI remote radioactive detector (LabLogic Systems Ltd, Brandon, FL). Laura radiochromatography software (LabLogic Systems Ltd, Brandon, FL) was used to quantify chromatograms by integration. Radioactive samples were counted using a 2480 Wizard II automatic gamma counter (PerkinElmer, Downers Grove, IL). Imaging studies were done by using […] (Sofie BioSciences) [CT-80 Kvp, 5 min (approximately 100 μm), PET-Resolution ≤1 mm]. Acquired PET/CT images were analyzed with InveonTM Research Workplace (IRW) (Siemens). […] At each time point, the mixture was spun down, washed twice with PBS, and the final bacterial pellets were measured using a gamma counter to determine the percent of associated radiolabeled peptide. […]
# [5] = test system: Staphylococcus aureus (SA), ATCC 6538; assay: Bacterial cell uptake of 64Cu-labeled peptides in Staphylococcus aureus; type: cell-based; conditions: SA 0.9–1.3 × 10^7 CFU/mL in PBS pH 7.4, 37°C, 24 h, 0.925–0.999 MBq, gamma counter, triplicates, mean ± SD
# From the text: as §4
# [6] = male, mean SUV in the infected muscle
# [7] = male, mean SUV of the heart (blood retention)
# [8] = male, mean SUV of the heart (dose retention)
# [9] = male, uptake in the control muscle
Compound,fold increase in accumulation (SUV) vs. ^64Cu-HLys-DOTA at the infection [1],SUV at 1 h (in vivo [2]; [6]),SUV at 4 h (in vivo [2]; [6]),SUV at 24 h (in vivo [2]; [6]),SUV at 1 h (in vivo [2]; [7]),SUV at 24 h (in vivo [2]; [8]),SUV at 1 h (in vivo [2]),SUV at 4 h (in vivo [2]),tissue uptake at 1 h (in vivo [3]; [9]),tissue uptake at 4 h (in vivo [3]; [9]),tissue uptake at 24 h (in vivo [3]; [9]),tissue uptake at 24 h (in vivo [3]),binding to PA (cell uptake) ([4]; 5 min after incubation),binding to PA (cell uptake) ([4]; 24 h after incubation),bacteria cell uptake (percent of associated radiolabeled peptide) [5]
"CC(=O)c1ccc(OCCCSC[C@H](NC(=O)CNC(=O)[C@@H](CCCNC(=N)N)NC(=O)[C@@H](CC(N)=O)NC(=O)[C@@H](CCCNC(=N)N)NC(=O)[C@@H](Cc2c[nH]c3ccccc23)NC(=O)[C@@H](C)NC(=O)[C@H](NC(=O)[C@@H](Cc2c[nH]c3ccccc23)NC(=O)[C@@H](Cc2ccc(O)cc2)NC(=O)[C@@H](CCCNC(=N)N)NC(=O)CN2CCN(CC(=O)O)CCN(CC(=O)O)CCN(CC(=O)O)CC2)C(C)C)C(N)=O)cc1B(O)O [^64Cu-AB1-HLys-DOTA, metal not drawn] ({DOTA}-[dR][dY][dW][dV][dA][dW][dR][dN][dR]GC(X1)-NH2)",2.4-4 fold,0.7 ± 0.08 SUV,0.49 ± 0.04 SUV,0.31 ± 0.01 SUV,0.65 ± 0.08 SUV,0.26 ± 0.04 SUV,0.28 ± 0.1 SUV,0.19 ± 0.1 SUV,2.5 ± 0.5 %ID/g,1.1 ± 0.4 %ID/g,0.8 ± 0.1 %ID/g,0.49 ± 0.11 %ID/g,–,–,–
"CC(C)[C@@H](NC(=O)[C@@H](Cc1c[nH]c2ccccc12)NC(=O)[C@@H](Cc1ccc(O)cc1)NC(=O)[C@@H](CCCNC(=N)N)NC(=O)CN1CCN(CC(=O)O)CCN(CC(=O)O)CCN(CC(=O)O)CC1)C(=O)N[C@H](C)C(=O)N[C@H](Cc1c[nH]c2ccccc12)C(=O)N[C@H](CCCNC(=N)N)C(=O)N[C@H](CC(N)=O)C(=O)N[C@H](CCCNC(=N)N)C(=O)NCC(N)=O [^64Cu-HLys-DOTA, metal not drawn] ({DOTA}-[dR][dY][dW][dV][dA][dW][dR][dN][dR]G-NH2; N-terminus and C-terminus assumed)",–,0.17 ± 0.06 SUV,0.16 ± 0.02 SUV,0.13 ± 0.01 SUV,0.25 ± 0.05 SUV,0.21 ± 0.04 SUV,–,–,0.6 ± 0.1 %ID/g,0.4 ± 0.1 %ID/g,–,–,1.9 ± 0.4%,5.2 ± 0.3%,39.12 ± 3.27% and 39.1 ± 3.3%
